Source: PMC545490, “Mapping and mutation of the conserved DNA polymerase interaction motif (DPIM) located in the C-terminal domain of fission yeast DNA polymerase δ subunit Cdc27” (BMC Molecular Biology, 2004)

Target: T1, LexA-Pol1-278-527 (S. pombe, UniProt P28040 278-527)
T1 construct: Pol1, catalytic subunit of DNA polymerase α, S. pombe, amino acids 278–527; source: yeast two-hybrid fusion (pBTM116, S. cerevisiae CTY10-5d)
T1 sequence (looked up): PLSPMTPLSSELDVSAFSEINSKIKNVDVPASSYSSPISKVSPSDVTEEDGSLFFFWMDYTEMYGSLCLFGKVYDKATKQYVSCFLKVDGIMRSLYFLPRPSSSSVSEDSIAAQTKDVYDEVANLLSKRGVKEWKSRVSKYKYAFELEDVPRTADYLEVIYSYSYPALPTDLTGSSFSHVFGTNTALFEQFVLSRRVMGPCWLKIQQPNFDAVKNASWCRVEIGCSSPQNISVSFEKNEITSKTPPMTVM
Experiment: two-hybrid; Gal4 AD prey (pACT2) and LexA bait (pBTM116) in S. cerevisiae lexA op-lacZ strain CTY10-5d; β-galactosidase activity in Miller units
Details: partners not purified

- strength of the interaction, percent of the wild-type value: ~10 % of wild-type
B1: Gal4-Cdc27-273-352-P7 (domain or fragment, S. pombe, UniProt P30261 273-352, looked up)
chain: TEAKSAAPDEPQEIIKSVSGGKRRGKRKVKKYATTKDEEGFLVTKEEEVWESFSAAANISTGTSNVVRNKPTTVNIATKK
notes: positions worked out from oligonucleotides CDC27-P6F and CDC27-P7F and the printed DEE 309–311; also called Cdc27-P7; source: yeast two-hybrid fusion (pACT2, S. cerevisiae CTY10-5d)
